From patent US20250019439A1 (Adimab, published 2025)

What was measured:
[1] = target: T1, ADI-22523 IgG; assay: BLI; tip anti-ID IgG, solution ADI-22523 IgG
T1 construct: anti-CD3 IgG
Experimental: (§1) ForteBio affinity measurements were performed generally as previously described (Estep et al., MAbs. 2013 5(2):270-8). Briefly, ForteBio affinity measurements were performed by loading antibody IgG or Fabs on-line onto AHC sensors. Sensors were equilibrated off-line in assay buffer for 30 minutes and then monitored on-line for 60 seconds for baseline establishment. For avid binding measurement, sensors with loaded antibodies were exposed to IgG or Fab solutions for 3 minutes, afterwards they were transferred to assay buffer for 3 minutes for off-rate measurement. Kinetics data were fit using a 1:1 binding model in the data analysis software provided by ForteBio to obtain equilibrium dissociation constant (KD=koff/kₒₙ) values. In each column, tip-immobilized antibodies are listed first and solution antibodies second.

[2] = target: T2, ADI-22523 Fab; assay: BLI; tip anti-ID IgG, solution ADI-22523 Fab
T2 construct: anti-CD3 Fab by papain digestion of the IgG
Experimental: as §1

[3] = target: T3, CTL-62228; assay: SPR Carterra, yeast anti-ID
T3 construct: also called glofitamab
Experimental: (§2) Kinetic analysis was conducted at 25° C. in an HBSTE running buffer system (Carterra Cat #3630) using a Carterra LSA (Carterra USA, Salt Lake City, UT). The sample compartment was maintained at 20° C. for the duration of each experiment.
(§3) For antibody capture experiments, a goat anti-human Fc antibody (Jackson ImmunoResearch) was covalently coupled to an HC30M sensor chip surface via standard amine coupling (1:1 EDC:NHS) and then blocked with ethanolamine (1.0 M, pH 8.5). Covalent coupling steps were performed in 25 mM MES buffer (Carterra, Cat #3625) plus 0.05% Tween20. The anti-CD3 antibodies (100 nM in running buffer) were flowed over discrete regions of interest on the chip surface for 5 minutes. […] Dissociation of the anti-idiotype antibodies was monitored for 300s. Several blank buffer samples were injected over the entire chip surface at the start of each non-regenerative kinetic cycle. The preceding blank buffer injection was used for blank surface subtraction. At the end of each non-regenerative kinetic cycle, all surfaces were regenerated via two 30s injections of 10 mM glycine, pH 1.7.
(§4) For data processing and fitting, sensorgrams were double reference subtracted with a baseline drift correction of 4 RU. Sensorgrams were y-aligned and baseline corrected, filtered and cropped to include only the association and dissociation steps. Data was fitted to a 1:1 binding model using Carterra Kinetics Data Analysis software version 1.7.1.3055.

[4] = target: T4, CTL-62227; assay: SPR Carterra, yeast anti-ID
T4 construct: also called odronextamab
Experimental: as §2, §3, §4

[5] = target: T5, CTL-62240; assay: SPR Carterra, yeast anti-ID
T5 construct: also called ONO-4685
Experimental: as §2, §3, §4

[6] = target: T6, ADI-48576; assay: SPR Carterra, yeast anti-ID
T6 construct: pH-dependent anti-CD3 antibody made in CHO cells
Experimental: as §2, §3, §4

[7] = target: T7, ADI-76359; assay: SPR Carterra avidity, yeast anti-ID, *koff limit
T7 construct: anti-CD3 antibody made in CHO cells, captured by anti-human Fc
Experimental: as §2, §3, §4

[8] = target: T8, ADI-74967; assay: SPR Carterra avidity, yeast anti-ID, *koff limit
T8 construct: pH-dependent anti-CD3 antibody made in CHO cells
Experimental: as §2, §3, §4

[9] = target: T9, ADI-26943; assay: SPR Carterra avidity, yeast anti-ID, *koff limit
T9 construct: anti-CD3 antibody made in CHO cells, captured by anti-human Fc
Experimental: as §2, §3, §4

[10] = target: T10, ADI-26924; assay: SPR Carterra avidity, yeast anti-ID, *koff limit
T10 construct: anti-CD3 antibody made in CHO cells, captured by anti-human Fc
Experimental: as §2, §3, §4

[11] = target: T11, ADI-26920 IgG; assay: SPR Carterra avidity, yeast anti-ID, *koff limit
T11 construct: anti-CD3 IgG
Experimental: as §2, §3, §4

[12] = target: T12, ADI-26919; assay: SPR Carterra avidity, yeast anti-ID, *koff limit
T12 construct: anti-CD3 antibody made in CHO cells, captured by anti-human Fc
Experimental: as §2, §3, §4

[13] = target: T13, ADI-74966; assay: SPR Carterra avidity, yeast anti-ID
T13 construct: pH-dependent anti-CD3 antibody made in CHO cells
Experimental: as §2, §3, §4

[14] = target: T14, ADI-67450; assay: SPR Carterra avidity, yeast anti-ID
T14 construct: anti-CD3 antibody made in CHO cells, captured by anti-human Fc
Experimental: as §2, §3, §4

[15] = target: T15, ADI-70326; assay: SPR Carterra avidity, yeast anti-ID
T15 construct: anti-CD3 antibody made in CHO cells, captured by anti-human Fc
Experimental: as §2, §3, §4

[16] = target: T16, ADI-48587; assay: SPR Carterra avidity, yeast anti-ID
T16 construct: pH-dependent anti-CD3 antibody made in CHO cells
Experimental: as §2, §3, §4

[17] = target: T17, ADI-26906 IgG; assay: SPR Carterra avidity, yeast anti-ID
T17 construct: anti-CD3 IgG
Experimental: as §2, §3, §4

[18] = target: T18, CTL-62223; assay: SPR Carterra avidity, yeast anti-ID
T18 construct: also called mosunetuzumab
Experimental: as §2, §3, §4

[19] = target: T19, ADI-76361; assay: SPR Carterra avidity, yeast anti-ID
T19 construct: anti-CD3 antibody made in CHO cells, captured by anti-human Fc
Experimental: as §2, §3, §4

[20] = target: T20, ADI-26916 IgG; assay: SPR Carterra avidity, yeast anti-ID
T20 construct: anti-CD3 IgG
Experimental: as §2, §3, §4

[21] = target: T21, ADI-26921 IgG; assay: SPR Carterra avidity, yeast anti-ID
T21 construct: anti-CD3 IgG
Experimental: as §2, §3, §4

[22] = target: T22, ADI-74965; assay: SPR Carterra avidity, yeast anti-ID
T22 construct: pH-dependent anti-CD3 antibody made in CHO cells
Experimental: as §2, §3, §4

[23] = target: T23, ADI-70327; assay: SPR Carterra avidity, yeast anti-ID
T23 construct: anti-CD3 antibody made in CHO cells, captured by anti-human Fc
Experimental: as §2, §3, §4

[24] = target: T24, ADI-74968; assay: SPR Carterra avidity, yeast anti-ID
T24 construct: pH-dependent anti-CD3 antibody made in CHO cells
Experimental: as §2, §3, §4

[25] = target: T25, ADI-67445; assay: SPR Carterra avidity, yeast anti-ID
T25 construct: anti-CD3 antibody made in CHO cells, captured by anti-human Fc
Experimental: as §2, §3, §4

[26] = target: T26, ADI-76358; assay: SPR Carterra avidity, yeast anti-ID
T26 construct: anti-CD3 antibody made in CHO cells, captured by anti-human Fc
Experimental: as §2, §3, §4

[27] = target: T27, ADI-26909; assay: SPR Carterra avidity, yeast anti-ID
T27 construct: anti-CD3 antibody made in CHO cells, captured by anti-human Fc
Experimental: as §2, §3, §4

[28] = target: T28, ADI-48592; assay: SPR Carterra avidity, yeast anti-ID
T28 construct: pH-dependent anti-CD3 antibody made in CHO cells
Experimental: as §2, §3, §4

[29] = target: T29, ADI-76357; assay: SPR Carterra avidity, yeast anti-ID
T29 construct: anti-CD3 antibody made in CHO cells, captured by anti-human Fc
Experimental: as §2, §3, §4

[30] = target: T30, ADI-50024; assay: SPR Carterra avidity, yeast anti-ID
T30 construct: anti-CD3 antibody made in CHO cells, captured by anti-human Fc
Experimental: as §2, §3, §4

[31] = target: T31, ADI-26915; assay: SPR Carterra avidity, yeast anti-ID
T31 construct: anti-CD3 antibody made in CHO cells, captured by anti-human Fc
Experimental: as §2, §3, §4

[32] = target: T32, ADI-26913 IgG; assay: SPR Carterra avidity, yeast anti-ID
T32 construct: anti-CD3 IgG
Experimental: as §2, §3, §4

[33] = target: T33, ADI-76362; assay: SPR Carterra avidity, yeast anti-ID
T33 construct: anti-CD3 antibody made in CHO cells, captured by anti-human Fc
Experimental: as §2, §3, §4

[34] = target: T34, ADI-67447; assay: SPR Carterra avidity, yeast anti-ID
T34 construct: anti-CD3 antibody made in CHO cells, captured by anti-human Fc
Experimental: as §2, §3, §4

[35] = target: T35, ADI-26912; assay: SPR Carterra avidity, yeast anti-ID
T35 construct: anti-CD3 antibody made in CHO cells, captured by anti-human Fc
Experimental: as §2, §3, §4

[36] = target: T36, ADI-48650; assay: SPR Carterra avidity, yeast anti-ID
T36 construct: pH-dependent anti-CD3 antibody made in CHO cells
Experimental: as §2, §3, §4

[37] = target: T37, ADI-76360; assay: SPR Carterra avidity, yeast anti-ID
T37 construct: anti-CD3 antibody made in CHO cells, captured by anti-human Fc
Experimental: as §2, §3, §4

[38] = target: T38, ADI-70330; assay: SPR Carterra avidity, yeast anti-ID
T38 construct: anti-CD3 antibody made in CHO cells, captured by anti-human Fc
Experimental: as §2, §3, §4

T36 sequence (VH, as listed by the source, chain 1 of 2): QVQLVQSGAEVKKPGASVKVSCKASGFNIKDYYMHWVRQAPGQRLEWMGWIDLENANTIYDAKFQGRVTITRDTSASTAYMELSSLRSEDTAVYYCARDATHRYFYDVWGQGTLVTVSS
T36 sequence (VL, as listed by the source, chain 2 of 2): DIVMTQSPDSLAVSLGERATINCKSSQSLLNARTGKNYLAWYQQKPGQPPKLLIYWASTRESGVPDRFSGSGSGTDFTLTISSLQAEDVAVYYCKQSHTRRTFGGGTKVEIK
T27 sequence (VH, as listed by the source limits assumed, chain 1 of 2): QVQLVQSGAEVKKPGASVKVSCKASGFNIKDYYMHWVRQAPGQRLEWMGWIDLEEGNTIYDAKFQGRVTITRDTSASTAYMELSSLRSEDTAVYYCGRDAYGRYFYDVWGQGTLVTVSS
T27 sequence (VL, as listed by the source limits assumed, chain 2 of 2): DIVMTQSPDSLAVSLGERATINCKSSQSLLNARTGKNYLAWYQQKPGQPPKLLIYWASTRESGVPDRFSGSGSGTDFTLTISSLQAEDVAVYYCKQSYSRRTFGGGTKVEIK
T15 sequence (VH, as listed by the source limits assumed, chain 1 of 2): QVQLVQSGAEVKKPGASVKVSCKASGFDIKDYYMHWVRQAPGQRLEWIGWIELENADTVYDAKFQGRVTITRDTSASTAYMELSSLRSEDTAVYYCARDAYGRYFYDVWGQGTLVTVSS
T15 sequence (VL, as listed by the source limits assumed, chain 2 of 2): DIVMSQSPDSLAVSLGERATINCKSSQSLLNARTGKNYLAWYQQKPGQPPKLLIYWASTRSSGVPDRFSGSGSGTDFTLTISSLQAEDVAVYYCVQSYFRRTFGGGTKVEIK
T35 sequence (VH, as listed by the source, chain 1 of 2): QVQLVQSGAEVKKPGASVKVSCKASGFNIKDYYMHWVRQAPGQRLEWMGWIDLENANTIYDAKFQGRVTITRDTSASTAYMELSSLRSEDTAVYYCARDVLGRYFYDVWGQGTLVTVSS
T10 sequence (VH, as listed by the source, chain 1 of 2): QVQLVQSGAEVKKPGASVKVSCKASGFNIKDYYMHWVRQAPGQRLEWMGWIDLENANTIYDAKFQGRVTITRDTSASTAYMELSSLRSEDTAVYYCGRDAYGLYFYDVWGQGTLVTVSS
T10 sequence (VL, as listed by the source, chain 2 of 2): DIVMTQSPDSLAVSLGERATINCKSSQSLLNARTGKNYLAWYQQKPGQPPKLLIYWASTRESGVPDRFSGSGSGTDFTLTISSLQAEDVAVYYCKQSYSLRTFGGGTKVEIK
T22 sequence (VH, as listed by the source, chain 1 of 2): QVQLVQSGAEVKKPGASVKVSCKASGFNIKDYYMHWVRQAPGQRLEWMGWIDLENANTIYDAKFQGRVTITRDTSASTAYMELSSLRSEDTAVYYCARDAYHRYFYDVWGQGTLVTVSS
T22 sequence (VL, as listed by the source, chain 2 of 2): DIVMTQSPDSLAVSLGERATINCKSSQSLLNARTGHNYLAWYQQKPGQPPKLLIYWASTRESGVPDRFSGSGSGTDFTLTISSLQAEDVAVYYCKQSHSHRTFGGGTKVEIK
T24 sequence (VL, as listed by the source, chain 2 of 2): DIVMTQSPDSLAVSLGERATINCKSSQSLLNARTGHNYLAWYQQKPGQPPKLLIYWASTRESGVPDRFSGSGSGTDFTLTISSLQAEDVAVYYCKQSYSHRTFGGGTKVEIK
T23 sequence (VH, as listed by the source limits assumed, chain 1 of 2): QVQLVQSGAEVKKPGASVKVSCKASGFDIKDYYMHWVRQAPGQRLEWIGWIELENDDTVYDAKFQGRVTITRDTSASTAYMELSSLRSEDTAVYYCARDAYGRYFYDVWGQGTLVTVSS
T9 sequence (VH, as listed by the source, chain 1 of 2): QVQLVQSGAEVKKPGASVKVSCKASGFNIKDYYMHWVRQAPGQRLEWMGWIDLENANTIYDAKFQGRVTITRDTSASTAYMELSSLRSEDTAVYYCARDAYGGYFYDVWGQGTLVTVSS
T9 sequence (VL, as listed by the source, chain 2 of 2): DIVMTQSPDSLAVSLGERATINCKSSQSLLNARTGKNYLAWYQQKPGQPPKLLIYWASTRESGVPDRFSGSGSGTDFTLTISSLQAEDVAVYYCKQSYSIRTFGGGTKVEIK
T14 sequence (VH, as listed by the source limits assumed, chain 1 of 2): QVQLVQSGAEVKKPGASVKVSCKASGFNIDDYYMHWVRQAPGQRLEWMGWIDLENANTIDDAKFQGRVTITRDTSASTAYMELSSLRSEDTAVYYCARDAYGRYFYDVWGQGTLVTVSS
T18 sequence (VH, as listed by the source, chain 1 of 2): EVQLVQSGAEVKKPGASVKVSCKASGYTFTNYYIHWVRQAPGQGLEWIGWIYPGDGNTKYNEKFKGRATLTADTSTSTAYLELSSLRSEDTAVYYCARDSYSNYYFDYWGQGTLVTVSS
T18 sequence (VL, as listed by the source, chain 2 of 2): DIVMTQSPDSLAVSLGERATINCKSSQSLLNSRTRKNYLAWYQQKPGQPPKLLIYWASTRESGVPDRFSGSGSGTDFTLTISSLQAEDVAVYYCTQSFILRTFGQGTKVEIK
T29 sequence (VH, as listed by the source, chain 1 of 2): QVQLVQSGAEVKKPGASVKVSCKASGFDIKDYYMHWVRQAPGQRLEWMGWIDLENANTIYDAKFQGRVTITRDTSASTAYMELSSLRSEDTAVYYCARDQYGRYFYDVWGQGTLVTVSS
T30 sequence (VH, as listed by the source limits assumed, chain 1 of 2): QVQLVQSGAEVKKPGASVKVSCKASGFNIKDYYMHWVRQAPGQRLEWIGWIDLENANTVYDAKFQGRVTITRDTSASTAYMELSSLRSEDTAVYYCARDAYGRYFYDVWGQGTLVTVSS
T28 sequence (VH, as listed by the source, chain 1 of 2): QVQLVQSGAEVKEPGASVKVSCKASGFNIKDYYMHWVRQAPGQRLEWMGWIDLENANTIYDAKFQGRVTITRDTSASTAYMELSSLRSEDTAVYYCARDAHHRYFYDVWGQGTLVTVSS
T28 sequence (VL, as listed by the source, chain 2 of 2): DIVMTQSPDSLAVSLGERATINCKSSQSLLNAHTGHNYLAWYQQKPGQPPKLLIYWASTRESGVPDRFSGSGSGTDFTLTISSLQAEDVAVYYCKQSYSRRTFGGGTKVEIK
T6 sequence (VH, as listed by the source, chain 1 of 2): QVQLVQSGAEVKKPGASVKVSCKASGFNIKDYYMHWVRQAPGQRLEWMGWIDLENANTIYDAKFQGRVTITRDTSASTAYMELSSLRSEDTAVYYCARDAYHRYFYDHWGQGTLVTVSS
T6 sequence (VL, as listed by the source, chain 2 of 2): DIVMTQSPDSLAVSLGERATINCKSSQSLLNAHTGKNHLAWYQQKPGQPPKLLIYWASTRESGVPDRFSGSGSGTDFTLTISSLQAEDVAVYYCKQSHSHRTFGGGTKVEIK
T5 sequence (VH, as listed by the source, chain 1 of 2): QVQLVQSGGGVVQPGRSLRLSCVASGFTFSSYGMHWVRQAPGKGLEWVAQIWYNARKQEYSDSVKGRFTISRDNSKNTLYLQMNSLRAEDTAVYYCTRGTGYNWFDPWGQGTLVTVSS
T5 sequence (VL, as listed by the source, chain 2 of 2): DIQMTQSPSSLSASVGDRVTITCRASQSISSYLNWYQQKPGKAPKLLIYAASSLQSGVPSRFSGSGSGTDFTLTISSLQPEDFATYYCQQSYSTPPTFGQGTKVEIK
T33 sequence (VH, as listed by the source, chain 1 of 2): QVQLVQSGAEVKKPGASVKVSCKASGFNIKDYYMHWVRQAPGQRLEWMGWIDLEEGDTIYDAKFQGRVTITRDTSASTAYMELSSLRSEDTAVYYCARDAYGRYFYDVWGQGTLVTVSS
T38 sequence (VH, as listed by the source limits assumed, chain 1 of 2): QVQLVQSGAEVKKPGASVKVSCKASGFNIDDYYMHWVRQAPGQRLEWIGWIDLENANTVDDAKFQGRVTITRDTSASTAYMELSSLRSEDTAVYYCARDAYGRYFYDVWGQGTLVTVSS

B1: ADI-30242 (antibody, V domains shown)
VH: QVQLVQSGAEVKKPGSSVKVSCKASGGTFSSYAISWVRQAPGQGLEWMGGIIPIFGTANYAQKFQGRVTITADESTSTAYMELSSLRSEDTAVYYCARGAPNYYGSGGYDDGWFDPWGQGTLVTVSS
VL: EIVLTQSPGTLSLSPGERATLSCRASQSVSSSYLAWYQQKPGQAPRLLIYGASSRATGIPDRFSGSGSGTDFTLTISRLEPEDFAVYYCQQFGRDPTFGGGTKVEIK
notes: anti-ID IgG
Question: With B1 as the binder, how does the Kd [1] read?
Answer: 0.57 nM

Question: And the Kd [2]?
Answer: 37.4 nM

Question: Does B1 bind [3]?
Answer: no binding (tested: up to 200 nM)

Question: Does B1 bind [4]?
Answer: no binding (tested: up to 200 nM)

Question: Does B1 bind [5]?
Answer: no binding (tested: up to 200 nM)

Question: Does B1 bind [6]?
Answer: no binding (tested: up to 200 nM)

Question: What about the Kd [7] of the same binder?
Answer: 3.7 nM

Question: And the Kd [8]?
Answer: 5.6 nM

Question: And the Kd [9]?
Answer: 6.2 nM

Question: What about the Kd [10] of the same binder?
Answer: 5.3 nM

Question: What about the Kd [11] of the same binder?
Answer: 4.2 nM

Question: What about the Kd [12] of the same binder?
Answer: 3.5 nM

Question: And the Kd [13]?
Answer: 25 nM

Question: What about the Kd [14] of the same binder?
Answer: 56 nM

Question: And the Kd [15]?
Answer: 45 nM

Question: What about the Kd [16] of the same binder?
Answer: 43 nM

Question: What about the Kd [17] of the same binder?
Answer: 5.9 nM

Question: What about the Kd [18] of the same binder?
Answer: 31 nM

Question: And the Kd [19]?
Answer: 15 nM

Question: And the Kd [20]?
Answer: 35 nM

Question: What about the Kd [21] of the same binder?
Answer: 21 nM

Question: And the Kd [22]?
Answer: 45 nM

Question: What about the Kd [23] of the same binder?
Answer: 45 nM

Question: And the Kd [24]?
Answer: 36 nM

Question: What about the Kd [25] of the same binder?
Answer: 11 nM

Question: And the Kd [26]?
Answer: 42 nM

Question: What about the Kd [27] of the same binder?
Answer: 17 nM

Question: Does B1 bind [28]?
Answer: binds

Question: What about the Kd [29] of the same binder?
Answer: 22 nM

Question: And the Kd [30]?
Answer: 11 nM

Question: What about the Kd [31] of the same binder?
Answer: 56 nM

Question: What about the Kd [32] of the same binder?
Answer: 24 nM

Question: And the Kd [33]?
Answer: 27 nM

Question: What about the Kd [34] of the same binder?
Answer: 8.4 nM

Question: What about the Kd [35] of the same binder?
Answer: 33 nM

Question: And the Kd [36]?
Answer: 44 nM

Question: And the Kd [37]?
Answer: 11 nM

Question: And the Kd [38]?
Answer: 40 nM
